A short description of this data set: label from the status in PepcDB records.
As for “MEISCLLNEIKASIRYENQIVHIEETPARDACYAPLELEVRIKAALSGTGIEALYSHQAEAIEKVREGKDLVLCTSTASGKSLTYMIPVFEAVLKDPEATSLYISPLNALVNDQLKAFLEFEGALNSGAGIARYTGALSADQKRKIRDGKTNIVFTNPEMVHMSFLAWHHLWRRFFSNLRFIVVDESHYYRGVIGSNMANVLRRLLRVAEYYGASPQFICCSATIGNPEDHTETLLGREAVVVENNGSLQGPQKFVFWNPPLYMNGRGCTVRRSSFSEASALFTRAVQAGLQTLAFTRSRQGVERMYRTCMELLRDRELPSAICPYRSGYFDREREEIERKMNSGELRGVISTNALELGIDIGGLDVCILDGYPGTVMSARQQAGRAGRSGNESLVLMVAGTNALDQYYMRNPADFFARSSENAVLNPKNPYILAGHLLCAAKEIPLRESDEKYFGGGYSRVVELLEAEGLLAGSDMKYSTDPFPYKQVSLRGIDNNTYSLLAFEGERSFPIEKDIEETLAFRECHPGAVYIHRGESFYINRIDHEKREIHAIKTHDSYYTKPMIDSSVVVQETYAAKPLLHAPEVEVGLGEVEVTDRIAGYRKIRTHSDETMSAHEIEMPPITLQTVALWLKLPDRLQEMIGDHKLDFAGGIHAVEHAIISMYPLHLLVDRSDVGGVSTPSHPDLGSKSGIFIYDGHRGGVGYAEKGYDLIEEVLEGTLKAIESCPCESGCPGCIQSPKCGNNNEPLDKHAAIMLLHELLGKAPYIPPEKKEKHLSEARARKTIPQERKSSGDALDRVRRQLRRENINQEPQAGKEKKEKTFIATDENGGMIGVVSAPTPEKAAAKTFHKKLAGQQGATKEKPLEIRIRDLGAGSDYHFRAWTELFEAAENGDPESKEKKAVKKLFIRKMS”, the protein production entry is on record as “failed”.

In the case of “MTSYSLEDFNTPLECAPLARWERKRKEQLDRTSKTPNKTPQGDRFIPNRNVMNIEVSRLNLQQEYYGKENNQNSSSLLDSHMDNVEWNSGKDSPACHHYQSALASSLLQNSYHEEHPQSKILTFKQKAPKPQEGYVNSLKVLYSQNMPQISEQRKRMIRHIPQTPDRILDAPELVDDYYLNLLDWNHENILAVALGSSVYLWNASTGDIQELCNVSQDEMICSVSWVPDGHHLAVGTSMKDVQLWDTQRGRQVRKMHSHSSRVGCLAWNGPILSSGSRDTTIHHHDVRIAQHHVETLRGHEQEVCGLKWNVDGSQLASGGNDNLLMIWDHFHSNQPKYRLDHHHAAVKAIAWCPWQTHLLASGGGTADRTIKFWNTTTGACLQSIDTKSQVCALIWNRHDKEIVSSHGFSQNQLIVWKYPSMVKMAELTGHTSRVLHLSLSPDGQTVVSGAGDETLRFWRVFEASESKLKSSNKTLGHSQKSIMRTCNIR”, the protein production entry was “not failed”.

Turning to “MAILHGSWILNEQESCLFIWGETWRSPQVDFNFAEISLNPLALSALELSEWLQSQHQAIAKLLPQQLEKRTSKAASSVKINLLTHSQIIALPTEISQPRKKETILISPVHSAALASESDSEVYLQTWRVEGFCLPPSAAIKLLTSLPLNITSGENAFLGGDLRFWSQIARWSLDLISRSKFLPIIQRQPNNSVSAKWQVLLDSAVDGTRLEKFAAKMPLVCRTYQEIGSGESPIYIDFPSQPQDLILGFLNSAIDTQLREMVGNQPVVETRLMASLPSAVRQWLQALIAASNSIDADAVGLERLEAALKAWTMPLQYQLASKNQFRTCFELRSPEPDETEWTLAYFLQAADDPEFLVDAATIWQNPVEQLIYQQRTIEEPQETFLRGLGLASRLYPVIAPTLDTESPQFCHLKPMQAYEFIKAVAWRFEDSGLGVILPPSLANREGWANRLGLKISAETPKKKPGRLGLQSLLNFQWHLAIGGQTISKAEFDRLVALKSPLVEINGEWVELRPQDIKTAEAFFTARKDQMALSLEDALRLSSGDTQVIEKLPVVSFEASGALQELIGALTNNQAVAPLPTPKNFQGQLRPYQERGAAWLAFLERWGLGACLADDMGLGKTIQFIAFLLHLKEQDVLEKPTLLVCPTSVLGNWEREVRKFAPTLKVLQYHGDKRPKGKAFQEAVKKHDLVITSYSLIHRDIKSLQGIPWQIIVLDEAQNVKNAEAKQSQAVRQLETTFRIALTGTPVENRLQELWSILDFLNPGYLGNKQFFQRRFAMPIEKYGDAASLNQLRALVQPFILRRLKTDRDIIQDLPDKQEMTVFCGLTGEQAALYQKAVETSLAEIESAEGLQRRGMILALLIKLKQICNHPAQYLKINTLEQHSSGKLQRLEEMLEEVLAESNTYGVAGAGRALIFTQFAEWGKLLKPHLEKQLGREIFFLYGGTSKKQREEMIDRFQHDPQGPPIMILSLKAGGVGLNLTRANHVFHFDRWWNPAVENQATDRVFRIGQTRNVQVHKFVCNGTLEEKIHDMIESKKQLAEQVVGAGEEWLTELDTDQLRNLLILDRSTVIDEEAD”, the protein production entry is on record as “failed”.

On to “MIREAQRSELPALLELWLESTIWGHPFIKSSYWRDCIPLVRDAYLANAQNWVWEEDGKLLGFVSIMEGRFLAAMFVAPKAVRRGIGKALMQYVQQRHPHLMLEVYQKNQPAIDFYHAQGFHIVDCAWQDETQLPTWIMSWPVVQTL”, for which the protein production result is given as “failed”.

Turning to “MDTSTNLDIGAQLIVEECPSTYSLTGMPDIKIEHPLDPNSEEGSAQGVAMGMKFILPNRFDMNVCSRFVKSLNEEDSKNIQDQVNSDLEVASVLFKAECNIHTSPSPGIQVRHVYTPSTTKHFSPIKQSTTLTNKHRGNEVSTTPLLANSLSVHQLAAQGEMLYLATRIEQENVINHTDEEGFTPLMWAAAHGQIAVVEFLLQNGADPQLLGKGRESALSLACSKGYTDIVKMLLDCGVDVNEYDWNGGTPLLYAVHGNHVKCVKMLLESGADPTIETDSGYNSMDLAVALGYRSVQQVIESHLLKLLQNIKE”, the protein production entry is recorded as “failed”.

Regarding “MTEPCRIIGVLDNGAEGLTPQALAYLHAADLVIGAGRTLALFEAHLAEGAECRDLGGRLAQVPDWIAEARRNGKRVAVLATGDPLCHGIAGYLGNKLGREALEILPNVSTIQLACARLGLPWQDMAIGSVHSRDAGDWTPGAGPGHGLYGLLQKLRQADLMGVFTSPENGPDRIARMLRAEGLDEEFEMAIAERLLQADERIHGWLGIAEAAGQCFADPNVVLLRRRPCEREALFGLPDTRFRQRAPDKGLITKREVRAVSLARLALRPDSIVWDIGAGSGAVGLEAARLCPLGHVYAIEKNVEDFAIALSNRESLRVSNYTLVQAKAPRELDGWPDPHGVFIGGSGGELRELIQICLRRLRTGGWLVMNFATLENLAAAVDALKASGASWDVTQLQAARSRPILDMHRLQAENPVWIVCAQRENNE”, the protein production result is listed as “failed”.

In the case of “MTDPVFFAPSRRYTAAEVANLTGSVLVDSGQSDVSIEALAPASEGGANALVFVDGRRNSALMPSLRAAAVLCPAEFANKAPSSVAVLIHPRPQQAFALVGRLLFPTAATPGPMTSETGVSAHAHIDPTAHVEAGAIIEAGVVIGPGVSIGSGTVIAPNAVIGQSCQIGRDGYVGPGASIQYALIGNRVIIHGGARIGQDGFGFVGGAKGPERVPQIGRVVIQDDVEIGSNSTVDRGAMSDTIIGQGTKIDNLVQIAHNVRIGRNCIVAGLSGISGSVVVGDNVTMGGGVGLADHLTIGSGAKLAARSGFMSNVPAGEIWGGYPAQPMAEAMREIAMLRTMARARKQGKDNG”, the protein production result is on record as “failed”.

For the sequence “VIKFSSEDCGTCHKMSHYDANVAEELGAEFVSVMLQDTEAYRKYRKVLLKQYPNKEGMGWPTYLLVTDPEGDFTIHGELKGGMPKGEFRTRLGALLA”, the protein production result is reported as “failed”.

As for “MNRFNYIGMLAYVALSMSSCDDSFDVSSKADGVLAVSQEGFNTLQSYNVGEKYTADLWIQQGGLKSTASVVSFSVDKALLDSMNIADGTSYELLPADCYQLTKSSVDIPANERLLKGELTYDPAKIQELSGYDHLKYVLPLRATSSGMPFVSGRSVLLLGFKVSEPIVTIMNAGVEEINLAEVKELPVQIGVPFTNKWEISCRLESRQSVIDAYNTAHGTYFSMLPSDAYVTPETPILHSGVNQVTATYKLKDDILPGNYMLPVQIAEVTSDATIRADKDVYAAYSIIKEGDKLSKTDWKIVSFTTEEASGEGSNNGHAKHLIDGNIETFWHSRWQGGSDPLPYEIIIDMNHRVKIAQIELLPRGRGSNNPIKVVRFEASEDGTNWESIGQFGFTNQDAALKYYVKSSTARYIKLVIPDGVGNGTVAAIRELDVRGTVVN”, the protein production entry is reported as “failed”.

“MDTAGIRLTPKEIVSKLNEYIVGQNDAKRKVAIALRNRYRRSLLDEESKQEISPKNILMIGPTGVGKTEIARRMAKVVGAPFIKVEATKFTEVGYVGRDVESMVRDLVDVSVRLVKAQKKSLVQDEATAKANEKLVKLLVPSMKKKASQTNNPLESLFGGAIPNFGQNNEDEEEPPTEEIKTKRSEIKRQLEEGKLEKEKVRIKVEQDPGALGMLGTNQNQQMQEMMNQLMPKKKVEREVAVETARKILADSYADELIDQESANQEALELAEQMGIIFIDEIDKVATNNHNSGQDVSRQGVQRDILPILEGSVIQTKYGTVNTEHMLFIGAGAFHVSKPSDLIPELQGRFPIRVELDSLSVEDFVRILTEPKLSLIKQYEALLQTEEVTVNFTDEAITRLAEIAYQVNQDTDNIGARRLHTILEKMLEDLSFEAPSMPNAVVDITPQYVDDKLKSISTNKDLSAFIL”: the protein production result is reported as “failed”.

Regarding “MSDYYLFAGRLFIAVMYVLSGANKLLFFSHGLDEVKSRNLPFPQLALSATIAVQLICGLAIMAGFQTTTASLLLALFTLATAVLFYDFWNQEGAQRTLMFTGFLEHISIIGGFALLMGAGPGKFVLLP”, the protein production result was “failed”.

In the case of “MSGGQQERHVLILNTVGGRRAIALEAAAYSLGRDESNAIVIDFETVSRQHAILLRVPVPGTTSYRYRLVDGNANGKPSTNGTFVNGKRISSHELQHGDVILFGRKAKASYLLLSMADTEFSQYLQSIAFQSIKSDLRGAKETLVGMELSGELRRTPNRELEHHHHHH”, the protein production result was “not failed”.

As for “MDTRKLLLTAQEISRMKGEHKVHFLNPGAVRVNKSLGDAVGLRHMGIHLIQIEPGKESTEYHLHHYEEEAVYVLSGKGTLTMENDQYPIAPGDFVGFPCHAAAHSISNDGTETLVCLVIGQRLDQDVVDYPNQHKRLYRNNGEWNLVDMADIRVLREPTQK”, the protein production entry is given as “not failed”.

In the case of “MELANKMLHALEHEDMALAKKYFDEVVQAGTDEEQYYLAEELFALGFLDETEDLYELLLAKYKDEGELLVRAAEVALEKDDMDAAQDYLEKVNKEDEAYIESLLVLADLYQMQGLFEVSEQKLLEAKQMAPNEPIIDFALGEYYLSQARFASAVQSYQTAVEAGLTIISNGAVSVYERIAEAFAASGAFEEALPYYERALEDKESVDTLFGMGLTAYQAKDYTKAIHALEHLREHDPSYTTLYSYLAKSYEENGEPEKAIAVLRDGLTQDEFNKEMFLEAGKLAVTLRLPEEAEEFYRQAIVLDEEFSEAIMQLNKLLLAKENYEGVIELVEGLGEEVISEPQIFWDVSVAYQETEQYNKAKANYELAYPHFTNNPTFLKEYGLFLREEGEHAKSQEVLRSYLELEPEDTEILSLFD”, the protein production entry is on record as “failed”.

“MIIAGLDVGTTKVTTVIGELAPDGVLDIIGEGTVPSQGLRRGVVVNLERTTEAIRQSLFQAERVAGVKVERVVVGVGGPHLKSVTSHGLAAIRRGHTIAEADVERAIEQAKAYPFEGELELLHALPLEFKVDGQEGIRDPVGMAGVRLEVDVHLIAAGRGPLANLRRAVEEAGLALDAVCVQALASGLAVLTPEEEEMTVLLLDIGGGTTDVAVFRGGRLAHSAVVPLGGDHVTHDIAQLLKIPFEEAERVKRKYGAALPELADPELVLEINQEGGALGEVPAPELARIIRPRMREILHLARQSVDETLGPLEIQVNRVVLTGGGALLRGTDLLARQQYGLPVRVGKPQGVSGLTDVVASPAHAAAVGLVRYGASLPLKPQEAKRIREKPEDKPKGEGLWARIKEFLSNLF”: the protein production entry was “failed”.

“MGLNIKPLVVSVLGSVLLAGCATAPPKQQDNLCEIFREKSGWYDDAKYMEKEWGTPIHVAMAIIKQESSFRHDAKPPKDYVLGFIPWGRVSSAYGYAQAQDPAWDDFQDSTGQGGSRSNFDDSIMFVGWYTHETRRQLGISLWDPYNQYLAYHEGRGGYKRGTYKRKPSLMKVARRVEQTAKTYGWQLKQCRQELEDNSSWFF”: the protein production result is on record as “failed”.

For the origin of these results see a protein production outcome set (Wang et al. 2014).
